Test results from patent publication US20110052582A1 (Hoffmann-La Roche, published 2011).
Where a chain is given by its changes, count along the chain named. Values belong to the binder of their own block, whether it stands above or below them.

Target: T1, Soluble CDCP1 extracellular domain (CDCP1-ECD) (SEQ ID NO:30) fused to Streptavidin Binding Protein (SBP) (human, UniProt Q9H5V8 30-663)
T1 construct: also called SBP-CDCP1-ECD
T1 sequence: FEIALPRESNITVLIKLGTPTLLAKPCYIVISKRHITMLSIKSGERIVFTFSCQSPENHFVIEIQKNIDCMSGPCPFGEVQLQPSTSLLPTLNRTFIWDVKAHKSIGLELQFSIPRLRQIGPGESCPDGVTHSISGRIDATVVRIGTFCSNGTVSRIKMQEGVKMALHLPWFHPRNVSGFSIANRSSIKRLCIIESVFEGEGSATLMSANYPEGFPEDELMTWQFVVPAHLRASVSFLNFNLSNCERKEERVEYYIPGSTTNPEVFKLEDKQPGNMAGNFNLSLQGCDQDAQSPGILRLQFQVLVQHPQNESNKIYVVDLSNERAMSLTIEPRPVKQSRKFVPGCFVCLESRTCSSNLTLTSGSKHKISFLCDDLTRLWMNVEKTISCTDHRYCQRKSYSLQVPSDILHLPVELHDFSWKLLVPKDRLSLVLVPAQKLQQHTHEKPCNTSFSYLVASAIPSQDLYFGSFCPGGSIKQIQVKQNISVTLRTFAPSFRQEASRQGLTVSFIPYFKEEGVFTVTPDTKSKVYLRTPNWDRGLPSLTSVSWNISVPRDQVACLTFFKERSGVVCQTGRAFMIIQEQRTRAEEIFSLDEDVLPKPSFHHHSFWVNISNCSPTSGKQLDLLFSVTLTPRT
Experiment: ELISA on captured SBP-CDCP1-ECD, ratio relative to chimeric CUB4 (chHC4)
Procedure: Soluble CDCP1 extracellular domain (CDCP1-ECD) (SEQ ID NO:30) fused to Streptavidin Binding Protein (SBP) was captured on a sreptavidine plate. To define optimal binding of the antibody to SBP-CDCP1-ECD, 384-well polystyrene plates (NUNC, streptavidin-coated) delivered by MicroCoat, Bernried, Germany (ID-No. 1734776-001) have been coated with pure and stepwise diluted HEK293 supernatant (in BSA/IMDM buffer: 100 mg/ml BSA Fraction V, Roche 10735078001, dissolved in Iscove's Modified Dulbeccos Medium). Using a calibration curve of mouse CUB4 antibodies the optimal dilution factor of the HEK293 supernatant in relation to the streptavidin binding capacity of the microtiter plate was identified. For the standard coating, SBP-CDCP1-ECD containing HEK293 supernatant was diluted (between 1:15 and 1:40) and incubated overnight at 2-8° C. (25 μl per well). Intensive washing of the microtiter plate is necessary to remove remaining unbound SBP-CDCP1-ECD.
Humanized CUB4 antibodies and/or reference antibody (chimeric (chHC4) CUB4 antibody comprising human constant region and mouse VH and VL of SEQ ID NO:1 and 2) were tested either undiluted or using a 12-step-dilution. 12.5 μl per well of each sample was incubated for 90 min at room temperature. After intensive washing using PBS-T (0.1% Tween 20 in PBS) 25 μl of either goat anti-human IgG antibodies coupled with HRP (Jackson ImmunoResearch, Code No: 109-036-098, dilution 1:10000) for human antibodies were added and incubated for 1 hour. After intensive washing the binding of the antibodies was detected with ABTS tablets (Roche Diagnostics GmbH, Cat. No.: 1112422). Absorbance at 405 nm/492 nm was measured using a standard photometer.

relative binding ratio: 0.4
B1: hHC4-d / hLC4-f (antibody, V domains shown)
VH: EVQLLESGGGLVQPGGSLRLSCAASGFTFNSYGMSWVRQAPGKGLEWVSTISSGGSYTYYPDSVKGRFTISRDNSKNTLYLQMNSLRAEDTAVYYCAKHPDYDGVWFAYWGQGTLVTVSS
VL: DIQMTQSPSSLSASVGDRVTITCSVSSSVFYVHWYQQKPGKAPKLLIYDTSKLASGVPSRFSGSGSGTDYTFTISSLQPEDIATYYCQQWNSNPPTFGGGTKVEIK

binding result: no binding
B4: hHC4-03 / hLC4-I (antibody, V domains shown)
VH: B1 VH with T50A
VL: EIVMTQSPATLSLSPGERATLSCRASSSVFYLSWYQQKPGQAPRLWIYDTSKLASGIPARFSGSGSGTDFTLTISSLQPEDFAVYYCQQWNSNPPTFGGGTKVEIK

relative binding ratio: 0.21
B5: hHC4-I / hLC4-L2 (antibody, V domains shown)
VH: B1 VH with G33A, T50A, P61A
VL: B4 VL with M4L, L21M, R24S, A25V, S33H, Q78E

relative binding ratio: 1.12
B6: hHC4-H / chLC4 (antibody, V domains shown)
VH: B1 VH with L5V, S49A, T58K, P61V, S75A, T78S, K98R
VL: QIVLTQSPAIMSASPGEKVTMTCSVSSSVFYVHWYQQKSGTSPKRWIYDTSKLASGVPARFSGSGSGTSYSLTISSMEAEDAATYYCQQWNSNPPTFGGGTKLEIK

relative binding ratio: 0.11
B9: hHC4-I / hLC4-L (antibody, V domains shown)
VH: B1 VH with G33A, T50A, P61A
VL: B4 VL with M4L, L21M, S33H, Q78E

relative binding ratio: 0.3
B10: hHC4-K2 / hLC4-K (antibody, V domains shown)
VH: B1 VH with L5V, Q13K, T50S, P61A, S75A, T78S, K98R
VL: B4 VL with M4L, S33H, Q78E

binding result: no binding
B11: hHC4-07 / hLC4-I (antibody, V domains shown)
VH: B1 VH with G33A
VL: B4 VL

binding result: no binding
B12: hHC4-b / chLC4 (antibody, V domains shown)
VH: B1 VH with L5V, Q13K, G33S, S35N, T50S, T58I, P61A, S75A, T78S, K98R
VL: B6 VL

binding result: no binding
B15: hHC4-H / hLC4-I (antibody, V domains shown)
VH: B1 VH with L5V, S49A, T58K, P61V, S75A, T78S, K98R
VL: B4 VL

relative binding ratio: 0.11
B16: hHC4-I / hLC4-J (antibody, V domains shown)
VH: B1 VH with G33A, T50A, P61A
VL: B4 VL with L21M, S33H

relative binding ratio: 0.44
B17: hHC4-H / hLC4-L (antibody, V domains shown)
VH: B1 VH with L5V, S49A, T58K, P61V, S75A, T78S, K98R
VL: B4 VL with M4L, L21M, S33H, Q78E
notes: also called Humanized CUB4 Antibody No. 58

relative binding ratio: 0.07
B19: hHC4-07 / hLC4-b (antibody, V domains shown)
VH: B1 VH with G33A
VL: B4 VL with M4L, R24S, A25V, L32V, S33H, W46L, F70Y, Q78E

relative binding ratio: 0.21
B23: hHC4-K2 / hLC4-L (antibody, V domains shown)
VH: B1 VH with L5V, Q13K, T50S, P61A, S75A, T78S, K98R
VL: B4 VL with M4L, L21M, S33H, Q78E

binding result: no binding
B24: hHC4-K2 / hLC4-I (antibody, V domains shown)
VH: B1 VH with L5V, Q13K, T50S, P61A, S75A, T78S, K98R
VL: B4 VL

relative binding ratio: 0.52
B25: hHC4-H / hLC4-J (antibody, V domains shown)
VH: B1 VH with L5V, S49A, T58K, P61V, S75A, T78S, K98R
VL: B4 VL with L21M, S33H
notes: also called Humanized CUB4 Antibody No. 36

relative binding ratio: 0.28
B26: hHC4-K2 / hLC4-M (antibody, V domains shown)
VH: B1 VH with L5V, Q13K, T50S, P61A, S75A, T78S, K98R
VL: B4 VL with M4L, L21M, R24G, S33H, Q41L, A59D, S76R, Q78E

relative binding ratio: 0.2
B27: hHC4-K2 / hLC4-L2 (antibody, V domains shown)
VH: B1 VH with L5V, Q13K, T50S, P61A, S75A, T78S, K98R
VL: B4 VL with M4L, L21M, R24S, A25V, S33H, Q78E

binding result: no binding
B30: hHC4-04 / hLC4-I (antibody, V domains shown)
VH: B1 VH with K98R
VL: B4 VL

binding result: no binding
B32: hHC4-I / hLC4-I (antibody, V domains shown)
VH: B1 VH with G33A, T50A, P61A
VL: B4 VL

Second part, the binder before the results:

B2: hHC4-a / hLC4-K (antibody, V domains shown)
VH: B1 VH with L5V, Q13K, S75A, T78S, K98R
VL: B4 VL with M4L, S33H, Q78E
relative binding ratio: 0.51

B3: hHC4-c / chLC4 (antibody, V domains shown)
VH: B1 VH with L5V, S49A, S75A, T78S, K98R
VL: B6 VL
relative binding ratio: 1

B7: hHC4-04 / hLC4-M (antibody, V domains shown)
VH: B1 VH with K98R
VL: B4 VL with M4L, L21M, R24G, S33H, Q41L, A59D, S76R, Q78E
relative binding ratio: 0.82

B8: hHC4-04 / chLC4 (antibody, V domains shown)
VH: B1 VH with K98R
VL: B6 VL
relative binding ratio: 0.71

B13: hHC4-03 / hLC4-a (antibody, V domains shown)
VH: B1 VH with T50A
VL: B4 VL with M4L, R24S, A25V, L32V, S33H, W46L, Q78E
relative binding ratio: 0.07

B14: hHC4-04 / hLC4-b (antibody, V domains shown)
VH: B1 VH with K98R
VL: B4 VL with M4L, R24S, A25V, L32V, S33H, W46L, F70Y, Q78E
relative binding ratio: 0.36

B18: hHC4-03 / hLC4-b (antibody, V domains shown)
VH: B1 VH with T50A
VL: B4 VL with M4L, R24S, A25V, L32V, S33H, W46L, F70Y, Q78E
relative binding ratio: 0.07

B20: hHC4-04 / hLC4-J (antibody, V domains shown)
VH: B1 VH with K98R
VL: B4 VL with L21M, S33H
relative binding ratio: 0.4

B21: hHC4-04 / hLC4-a (antibody, V domains shown)
VH: B1 VH with K98R
VL: B4 VL with M4L, R24S, A25V, L32V, S33H, W46L, Q78E
relative binding ratio: 0.39

B22: hHC4-04 / hLC4-K (antibody, V domains shown)
VH: B1 VH with K98R
VL: B4 VL with M4L, S33H, Q78E
relative binding ratio: 0.57

B28: hHC4-04 / hLC4-L (antibody, V domains shown)
VH: B1 VH with K98R
VL: B4 VL with M4L, L21M, S33H, Q78E
relative binding ratio: 0.68

B29: hHC4-04 / hLC4-L2 (antibody, V domains shown)
VH: B1 VH with K98R
VL: B4 VL with M4L, L21M, R24S, A25V, S33H, Q78E
relative binding ratio: 0.67

B31: hHC4-03 / hLC4-L (antibody, V domains shown)
VH: B1 VH with T50A
VL: B4 VL with M4L, L21M, S33H, Q78E
relative binding ratio: 0.17

B33: hHC4-07 / hLC4-K (antibody, V domains shown)
VH: B1 VH with G33A
VL: B4 VL with M4L, S33H, Q78E
relative binding ratio: 0.1

B34: hHC4-03 / hLC4-M (antibody, V domains shown)
VH: B1 VH with T50A
VL: B4 VL with M4L, L21M, R24G, S33H, Q41L, A59D, S76R, Q78E
relative binding ratio: 0.14

B35: hHC4-07 / hLC4-J (antibody, V domains shown)
VH: B1 VH with G33A
VL: B4 VL with L21M, S33H
relative binding ratio: 0.07
